Assay results taken from patent US20190241654A1 (published 2019).
Where “and” joins values, the source holds several entries; their conditions need not be identical. Equal entries are not always repeated.

Molecular target: T1, CD47 on CCRF-CEM cells (human, UniProt Q08722 19-323)
Assay: cell-based or functional assay

T1 sequence (Q08722 19-323): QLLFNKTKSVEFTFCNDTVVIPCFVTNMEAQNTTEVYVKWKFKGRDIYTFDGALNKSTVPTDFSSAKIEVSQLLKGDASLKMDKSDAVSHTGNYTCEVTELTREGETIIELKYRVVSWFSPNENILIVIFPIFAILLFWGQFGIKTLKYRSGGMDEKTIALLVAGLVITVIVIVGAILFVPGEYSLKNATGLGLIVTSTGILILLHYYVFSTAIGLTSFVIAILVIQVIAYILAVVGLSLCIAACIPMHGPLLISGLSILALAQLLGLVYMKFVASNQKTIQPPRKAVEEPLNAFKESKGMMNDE

Phagocytosis EC50 (ug/mL), Donor 1 | Binder
12.8 µg/mL | Ab356/Ab1129 (HC Ab356, LC Ab1129) anti-CD47 antibody (antibody, V domains shown, FR and CDR L2 variant of AbParental; The label order is HC/LC although the head says 'LC/HC'; r466 is used) VH: QMQLVQSGAEVKKPGSSVKVSCKASGFNIKDYYLHWVRQAPGKGLEWMGWIDPDQGDTEYAQKFQGRVTITRDRSTSTAYMELRSLRAEDTAVYYCNAAYGSSSYPMDYWGQGTTVTVSS VL: NIQMTQSPSSLSASVGDRVTITCRASQDIHRYLSWFQQKPGKVPKHLIYRHIRFVDGVPSRFSGSGSGTEFTLTISSLQPEDFATYYCLQYDEFPYTFGGGTKVEIK

Molecular target: T2, recombinant extracellular domain of CD47 (UniProt Q08722 19-139, limits assumed)
T2 construct: extracellular domain; Analyte flowed over the captured antibodies in SPR; also called CD47-ECD
T2 sequence (Q08722 19-139 limits assumed): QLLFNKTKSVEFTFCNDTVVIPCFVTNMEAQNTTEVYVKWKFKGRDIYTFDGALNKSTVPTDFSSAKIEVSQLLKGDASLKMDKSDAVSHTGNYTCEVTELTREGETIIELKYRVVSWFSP
Assay: SPR; antibody captured on anti-human Fc, CD47-ECD flowed 0-100 nM; 1:1 Langmuir
Description: The binding kinetics of anti-CD47 antibodies to the recombinant extracellular domain of CD47 were determined by using surface Plasmon resonance (SPR, MASS-1, Sierra Sensors; T200, Biacore, GE Healthcare Life Sciences). Anti-human Fc (P/N: BR-1008-39 (GE Healthcare Life Sciences)) was immobilized on a High Capacity Amine chip (P/N: SPR-AS-HCA, Sierra sensors) or CM5-S Chip (GE Healthcare Life Sciences). CD47 antibodies were captured on Human IgG FC and CD47-ECD was flowed over the surface at various concentrations ranging from zero (for double referencing) to 100 nM. In order to determine KD's, antibodies were ranked using a 1:1 Langmuir model.

Kd | koff | kon | Binder
0.236 nM | 0.00187 s⁻¹ | 7.94e+06 M⁻¹ s⁻¹ | AbParental (parental anti-CD47 antibody) (antibody, human IgG4 S228P, kappa, V domains shown, also called Parental LC-HC; parental antibody) VH: QMQLVQSGAEVKKTGSSVKVSCKASGFNIKDYYLHWVRQAPGQALEWMGWIDPDQGDTEYAQKFQDRVTITRDRSMSTAYMELSSLRSEDTAMYYCNAAYGSSSYPMDYWGQGTTVTVSS VL: NIQMTQSPSAMSASVGDRVTITCKASQDIHRYLSWFQQKPGKVPKHLIYRANRLVSGVPSRFSGSGSGTEFTLTISSLQPEDFATYYCLQYDEFPYTFGGGTKVEIKR
0.564 nM | 0.00577 s⁻¹ | 1.02e+07 M⁻¹ s⁻¹ | Ab1119/Ab480 (antibody, V domains shown, Variant of AbParental; also called LC Ab1119 / HC Ab480) VH: QMQLVQSGAEVKKPGSSVKVSCKASGFNIKDYYLHWVRQAPGKGLEWMGWIDPDQGDTEYAQKFQGRVTITRDRSTSTAYMELRSLRAEDTAVYYCNAAYGSSSYPMDYWGQGTLVTVSS VL: NIQMTQSPSSLSASVGDRVTITCRASQDIHRYLSWFQQKPGKVPKHLIYRANRLVSGVPSRFSGSGSGTEFTLTISSLQPEDFATYYCLQYDEFPYTFGGGTKVEIK
1.02 nM | 0.00274 s⁻¹ | 2.69e+06 M⁻¹ s⁻¹ | Ab356/Ab1120 (antibody, V domains shown, FR and CDR L2 variant; also called HC Ab356 / LC Ab1120) VH: QMQLVQSGAEVKKPGSSVKVSCKASGFNIKDYYLHWVRQAPGKGLEWMGWIDPDQGDTEYAQKFQGRVTITRDRSTSTAYMELRSLRAEDTAVYYCNAAYGSSSYPMDYWGQGTTVTVSS VL: NIQMTQSPSSLSASVGDRVTITCRASQDIHRYLSWFQQKPGKVPKHLIYRYVRFVDGVPSRFSGSGSGTEFTLTISSLQPEDFATYYCLQYDEFPYTFGGGTKVEIK
0.562 nM | 0.00583 s⁻¹ | 1.04e+07 M⁻¹ s⁻¹ | Ab1119/Ab170 (antibody, V domains shown, Variant of AbParental; also called LC Ab1119 / HC Ab170) VH: QMQLVQSGAEVKKPGSSVKVSCKASGFNIKDYYLHWVRQAPGKGLEWMGWIDPDQGDTEYAQKFQGRVTITRDRSTSTAYMELRSLRSEDTAVYYCNAAYGSSSYPMDYWGQGTTVTVSS VL: NIQMTQSPSSLSASVGDRVTITCRASQDIHRYLSWFQQKPGKVPKHLIYRANRLVSGVPSRFSGSGSGTEFTLTISSLQPEDFATYYCLQYDEFPYTFGGGTKVEIK
0.556 nM and 0.529 nM | 0.00571 s⁻¹ and 0.00552 s⁻¹ | 1.03e+07 M⁻¹ s⁻¹ and 1.04e+07 M⁻¹ s⁻¹ | Ab1119/Ab387 (antibody, V domains shown, Variant of AbParental; also called LC Ab1119 / HC Ab387) VH: QMQLVQSGAEVKKPGSSVKVSCKASGFNIKDYYLHWVRQAPGKGLEWMGWIDPDQGDTEYAQKFQGRVTITRDRSTSTAYMELRSLRSEDTAVYYCNAAYGSSSYPMDYWGQGTLVTVSS VL: NIQMTQSPSSLSASVGDRVTITCRASQDIHRYLSWFQQKPGKVPKHLIYRANRLVSGVPSRFSGSGSGTEFTLTISSLQPEDFATYYCLQYDEFPYTFGGGTKVEIK
77.9 nM | 0.00411 s⁻¹ | 22800 M⁻¹ s⁻¹ | Ab356/Ab1122 (antibody, V domains shown, FR and CDR L2 variant; Label printed HC first; r445 used; also called HC Ab356 / LC Ab1122) VH: QMQLVQSGAEVKKPGSSVKVSCKASGFNIKDYYLHWVRQAPGKGLEWMGWIDPDQGDTEYAQKFQGRVTITRDRSTSTAYMELRSLRAEDTAVYYCNAAYGSSSYPMDYWGQGTTVTVSS VL: NIQMTQSPSSLSASVGDRVTITCRASQDIHRYLSWFQQKPGKVPKHLIYRYERFVDGVPSRFSGSGSGTEFTLTISSLQPEDFATYYCLQYDEFPYTFGGGTKVEIK
0.635 nM and 0.599 nM | 0.00647 s⁻¹ and 0.0059 s⁻¹ | 1.02e+07 M⁻¹ s⁻¹ and 9.85e+06 M⁻¹ s⁻¹ | Ab1119/Ab356 (antibody, V domains shown, Variant of AbParental; also called LC Ab1119 / HC Ab356) VH: QMQLVQSGAEVKKPGSSVKVSCKASGFNIKDYYLHWVRQAPGKGLEWMGWIDPDQGDTEYAQKFQGRVTITRDRSTSTAYMELRSLRAEDTAVYYCNAAYGSSSYPMDYWGQGTTVTVSS VL: NIQMTQSPSSLSASVGDRVTITCRASQDIHRYLSWFQQKPGKVPKHLIYRANRLVSGVPSRFSGSGSGTEFTLTISSLQPEDFATYYCLQYDEFPYTFGGGTKVEIK

Molecular target: T1, CD47 on CCRF-CEM cells
Assay: flow cytometry on antibody-opsonized CCRF-CEM cells, anti-human Alexa 647 secondary, median fluorescence, sigmoidal fit; Donor 1
Description: Phagocytosis was assayed by serum starving the macrophages in incomplete AIM V media for two hours. During this incubation period, target cells (CCRF-CEM) from two donors (donor 1 and donor 2) were labeled with CSFE (Invitrogen, #C34554) at […] for 15 minutes at room temperature. Cells were rinsed twice with PBS (Hyclone, #SH30028.02) and resuspended at 8×10⁵/mL in AIM V media. Antibody dilutions were prepared at 0.01 ug/ml to 10 ug/ml in half log dilutions and then incubated with the target cell line for 10 minutes at room temperature (a small portion is retained for flow cytometric analysis/cell binding), after which 100 μL of target cell/antibody suspension was added to the macrophage plates. Samples were treated in triplicate and with appropriate isotype controls.
Samples were incubated for 30 minutes at room temperature, rinsed 2× and then resuspended in FACS buffer and analyzed on the Attune. The EC50 values refer to the concentration that gives half the maximum binding measured as median fluorescent intensity, and was determined by non-linear fit of a sigmoidal dose response within the GraphPad Prism software.

EC50 | Binder
0.16 µg/mL | Ab356/Ab1129 (HC Ab356, LC Ab1129) anti-CD47 antibody (antibody, V domains shown, FR and CDR L2 variant of AbParental; The label order is HC/LC although the head says 'LC/HC'; r466 is used) VH: QMQLVQSGAEVKKPGSSVKVSCKASGFNIKDYYLHWVRQAPGKGLEWMGWIDPDQGDTEYAQKFQGRVTITRDRSTSTAYMELRSLRAEDTAVYYCNAAYGSSSYPMDYWGQGTTVTVSS VL: NIQMTQSPSSLSASVGDRVTITCRASQDIHRYLSWFQQKPGKVPKHLIYRHIRFVDGVPSRFSGSGSGTEFTLTISSLQPEDFATYYCLQYDEFPYTFGGGTKVEIK
